# Measurements taken from article PMC12013513 (2025).
# B1: GST-ANI-1^C-term (681-1159 AA) [C. elegans] / 10xHis-RHO-1^WT (wild type RHO-1, 1-188 AA) [C. elegans] (parent complex)
# chain 1: DDDATTQFPVPERSRKSSSQLAYSVSFYRKIQRDRNEESSTVLAGPVISQISPSAPPMSSSLTSQQKLRQLTTGPANGARIVESAKDAHDRIKRAIQVEEQLVAQSKRAMILARDKPSFRGSREEFEAQWAMLRHVEKHRALLTEYDRLKRDGPRIIDGPRGTITVSQLSVNMARDYVSANIASSKKSDEVFYFAAILRYGEQVDVSKMVTSDGGLNRRGVLEFPVPLMLTGIPPDFRATVEIYGQRSMRESTSHEDKYKLKNSTFKAKTRNTFLGGGSTSSANQSLFVDPAASSSSTSSTTSNFNLLGTFSFDINCPGKHLYNMSHTVYPLEGITQMKVRKQAIDGADITYHGFLSMYQRTGEGLGSWTRYWCALENGEMKFWKQPEDEGTKGYTALMDLSTCCRSEGASVVEDICPFPNSFHIDVWAPKMDTSDPRGIERLRVMLAADTAQDLQTWLSLINSTSKQLCTWRNPIVNQ
# chain 2: not shown
# Variants of: B1
# Experiment: pull-down; parent: 14; read off a plot
row,Variant,response
1,"chain 1 A109D, chain 1 E127K",~17 % of Bound RHO-1
